Experimental data published in US20180022816A1 (Genmab, published 2018).

Experiments:
Assay in all cases: cell-based or functional assay
[1] = molecular target: T1, human epidermal growth factor receptor 2 (HER2), membrane-bound on tumor cells (AU565, A431, SK-BR-3) (human, UniProt P04626 23-1255)
[2] = molecular target: T1, human epidermal growth factor receptor …; remark: listed apart in the source
[3] = molecular target: T1, human epidermal growth factor receptor …; remark: listed apart in the source

Binder	% cells killed, AU565 cells, anti-kappa-ETA′-conjugated antibody [1] [%]	EC50 of killing, AU565 cells, anti-kappa-ETA′-conjugated antibody [1] [µg/mL]	EC50, fab-CypHer5E internalization assay, AU565 cells [2] [µg/mL]	Maximal MFI, fab-CypHer5E internalization assay, AU565 cells [2] [MFI]	EC50 of killing, A431 cells, anti-kappa-ETA′-conjugated antibody [3] [µg/mL]
HuMab 111 (antibody, V domains shown) VH: QVQLVQSGAEVKKPGSSVKVSCKASGGTFSSYGISWVRQAPGPGLEWMGRIIPILGIANYAQKFQGRVTITADKSTNTAYMELSSLRSEDTAVYYCARDQEYSSNWYYWGQGTLVTVSS VL: not shown	72	0.0242	0.0352	81700	
HuMab 106 (antibody, V domains shown) VH: EVQLVQSGAEVKKPGESLKISCKGSGYSFTRYWIGWVRQMPGKGLEWMGIIYPGDSDTRYSPSFQGQVTISADKSISTAYLQWSSLKASDTAMYYCARLTGDRGFDYYSGMDVWGQGTTVTVSS VL: not shown	59.1	0.108	0.0686	57400	
HuMab 059 (antibody, V domains shown) VH: QVQLVQSGAEVKKPGASVRVPCKASGYTFTRYGISWVRQAPGQGLEWMGWISAYNGKTYYAQKLQGRVTMTTDTSTSTAYMELRSLRSDDTAVYYCARSPLLWFEELYFDYWGQGTLVTVSS VL: EIVLTQSPGTLSLSPGERATLSCRASQSVSSTYLAWYQQKPGQAPRLLIYGASSRATGIPDRFSGSGSGTDFTLTISRLEPEDFAVYYCQQYGTSLFTFGPGTKVDIK	67	0.0677	0.0148	77100	
HuMab 060 (antibody, V domains shown) VH: EVQLVQSGAEVKKPGESLKISCKGSGYRFTSYWIGWVRQMPGKGLEWMGSIYPGDSYTRNSPSFQGQVTISADKSIATAYLQWNSLKASDTAMYYCARHAGDFYYFDGLDVWGQGTTVTVSS VL: not shown	64.3	0.0794	0.0362	68200	~0.01
HuMab 005 (antibody, human IgG1, V domains shown) VH: EVQLVQSGAEVKKPGESLKISCKASGYSFHFYWIGWVRQMPGKGLEWMGSIYPGDSDTRYRPSFQGQVTISADKSISTAYLQWTSLKASDTAIYYCARQRGDYYYFYGMDVWGQGTTVTVSS VL: not shown	69.7	0.0151	0.0214	95100	~0.0101
